# B1: periostin: Recombinant periostin, purified from HEK293 cells expressing the full-length human cDNA; secreted protein of 834 amino acids (Seq ID. No. 1) (protein, listed as Homo sapiens)
# chain: MIPFLPMFSLLLLLIVNPINANNHYDKILAHSRIRGRDQGPNVCALQQILGTKKKYFSTCKNWYKKSICGQKTTVLYECCPGYMRMEGMKGCPAVLPIDHVYGTLGIVGATTTQRYSDASKLREEIEGKGSFTYFAPSNEAWDNLDSDIRRGLESNVNVELLNALHSHMINKRMLTKDLKNGMIIPSMYNNLGLFINHYPNGVVTVNCARIIHGNQIATNGVVHVIDRVLTQIGTSIQDFIEAEDDLSSFRAAAITSDILEALGRDGHFTLFAPTNEAFEKLPRGVLERFMGDKVASEALMKYHILNTLQCSESIMGGAVFETLEGNTIEIGCDGDSITVNGIKMVNKKDIVTNNGVIHLIDQVLIPDSAKQVIELAGKQQTTFTDLVAQLGLASALRPDGEYTLLAPVNNAFSDDTLSMVQRLLKLILQNHILKVKVGLNELYNGQILETIGGKQLRVFVYRTAVCIENSCMEKGSKQGRNGAIHIFREIIKPAEKSLHEKLKQDKRFSTFLSLLEAADLKELLTQPGDWTLFVPTNDAFKGMTSEEKEILIRDKNALQNIILYHLTPGVFIGKGFEPGVTNILKTTQGSKIFLKEVNDTLLVNELKSKESDIMTTNGVIHVVDKLLYPADTPVGNDQLLEILNKLIKYIQIKFVRGSTFKEIPVTVYTTKIITKVVEPKIKVIEGSLQPIIKTEGPTLTKVKIEGEPEFRLIKEGETITEVIHGEPIIKKYTKIIDGVPVEITEKETREERIITGPEIKYTRISTGGGETEETLKKLLQEEVTKVTKFIEGGDGHLFEDEEIKRLLQGDTPVRKLQANKKVQGSRRRLREGRSQ
# Key:
# [1] = test system: primary adult rat ventricular cardiomyocytes; assay: DNA synthesis (BrdU uptake, immunofluorescence) in primary adult rat ventricular cardiomyocytes; type: cell-based
# Text: Primary neonatal rat ventricular cardiomyocytes were isolated using the Neomyts kit (Cellutron, Highland Park, N.J.), seeded at a density of 10^5 cells/cm^2 onto gelatin-coated cover slips, stimulated for 3 days, and labeled with BrdU for the terminal 2 days. Primary adult ventricular cardiomyocytes were isolated from male (300 gm) Wistar rats (Charles River Laboratories) and maintained as described (Engel, F. B. et al. p38 MAP kinase inhibition enables proliferation of adult mammalian cardiomyocytes. Genes Dev 19, 1175-87 (2005)). Adult cardiomyocytes were stimulated daily for 9 days and labeled with 30 μM BrdU for the terminal 3 days. Cardiomyocytes were stimulated with periostin (500 ng/mL) and FGF (100 ng/mL). […] The vehicle used to dissolve factors or chemicals was added to unstimulated samples, which were then processed together with the test samples. DNA-synthesis was analyzed by visualization of BrdU uptake and cytokinesis was determined by detection of the cleavage furrow and the midbody with an antibody against aurora B kinase as described (Engel, F. B. et al. p38 MAP kinase inhibition enables proliferation of adult mammalian cardiomyocytes. Genes Dev 19, 1175-87 (2005)). Signals were visualized with secondary antibodies conjugated to Alexa 488, Alexa 546, Alexa 594, and Alexa 647 (Invitrogen). […] For image acquisition, the value for γ was set at 1 and the lookup table settings were linear. Primary adult rat ventricular cardiomyocytes were grown on gridded cover slips (Electron Microscopy Services, Ft. Washington, Pa.) and imaged in phase contrast at 10× magnification. Cardiomyocytes were transduced with an adenovirus leading to nuclear expression of histone2B-GFP (Shi, Q. & King, R. W. Nature 437, 1038-42 (2005)) under control of the chicken troponin T promoter ([…]. Am J Physiol Cell Physiol 286, […]-64 (2004)). Nuclei were visualized at 10× magnification with a mercury-arc lamp dimmed to 1.5% with a neutral density filter. […] Images of BrdU-positive cardiomyocytes were matched with the corresponding images from before stimulation. For quantification, differentiated cardiomyocytes were defined as striated rod-shaped structures with length/width ratio>1.5.
# [2] = test system: Adult male Sprague-Dawley rats; assay: Rat model of myocardial infarction: echocardiography and catheterization; type: in vivo; details: for Maximum left ventricular elastance / Maximum rate of left ventricular pressure rise / Preload-recruitable stroke work / Slope of end-systolic pressure-volume relationship: catheterization, 12 weeks
# Protocol: Adult male Sprague-Dawley rats (300 gm, Charles River Laboratories) underwent experimental myocardial infarction as described (del Monte, F. et al. Abrogation of ventricular arrhythmias in a model of ischemia and reperfusion by targeting myocardial calcium cycling. Proc Natl Acad Sci USA 101, 5622-7 (2004)). The survival rate was 67%. Gelfoam loaded with 100 μg of recombinant periostin or with buffer were applied over the myocardial infarction at the time of surgery. Rats received 3 intraperitoneal BrdU injections (70 μmol/kg body weight) with a half-life of 2 hr every 48 hr over a period of 7 days. Echocardiography and hemodynamic catheterization were performed as described (Prunier, F. et al. Am J Physiol Heart Circ Physiol (2006)).
# ERK1/2 and Akt = details: neonatal cardiomyocytes
# Protocol: Primary cardiomyocytes or heart tissue were lysed in 20 mM Tris (pH 7.5), 150 mM NaCl, 10 mM EDTA, 1 mM EGTA, 1% Triton X-100, […], 1 mM β-glycerol phosphate, 1 mM Na3VO4, 1 μg/ml, leupeptin, 1% NP-40 and 0.24 mg/mL Pefabloc SC (Roche) at 4° C. Protein concentrations were determined using the BCA assay (Pierce, Rockford, Ill.). Forty μg of cell lysate was separated on 10% SDS-polyacrylamide gels, blotted onto nitrocellulose membranes (Amersham, Piscataway, N. J.), which were then incubated with antibodies according to manufacturer's directions, followed by visualization with ECL reagent (Amersham).
# [3] = test system: adult ventricular cardiomyocytes; assay: Transcription of fetal gene program (RT-PCR) in adult ventricular cardiomyocytes; type: cell-based, rat
# [4] = test system: primary neonatal rat ventricular cardiomyocytes; assay: Cardiomyocyte proliferation by cell count (hemocytometer); type: cell-based
# Protocol: To determine cardiomyocyte proliferation, primary neonatal rat ventricular cardiomyocytes were quantified by counting with a hemocytometer after 3 days and 6 days of stimulation. To determine cardiomyocyte survival, primary neonatal rat ventricular cardiomyocytes were pre-treated with 500 ng/mL periostin or buffer for 30 min and then exposed to 0.5 μM doxycycline or 100 ng/mL TNFα for 24 hr and quantified by counting. Corresponding samples were stained with an antibody directed against tropomyosin as a cardiomyocyte marker to control for the percentage of differentiated cardiomyocytes. Apoptotic cardiomyocyte nuclei were determined after 24 hr with the In situ Cell Death Detection Kit (Roche, Indianapolis, Ind.) in combination with staining for troponin I.
# [5] = test system: primary neonatal rat ventricular cardiomyocytes; assay: DNA synthesis, mitosis and cytokinesis in primary neonatal rat ventricular cardiomyocytes; type: cell-based
# Text: Primary neonatal rat ventricular cardiomyocytes were isolated using the Neomyts kit (Cellutron, Highland Park, N.J.), seeded at a density of 10^5 cells/cm^2 onto gelatin-coated cover slips, stimulated for 3 days, and labeled with BrdU for the terminal 2 days. Primary adult ventricular cardiomyocytes were isolated from male (300 gm) Wistar rats (Charles River Laboratories) and maintained as described (Engel, F. B. et al. p38 MAP kinase inhibition enables proliferation of adult mammalian cardiomyocytes. Genes Dev 19, 1175-87 (2005)). Adult cardiomyocytes were stimulated daily for 9 days and labeled with 30 μM BrdU for the terminal 3 days. Cardiomyocytes were stimulated with periostin (500 ng/mL) and FGF (100 ng/mL). Inhibiting antibodies were added at a concentration of 10 μg/mL, cRGD at 10 μM, U0126 at 10 μM, PD98059 at 1 μM, LY294002 at 10 μM, and Wortmannin at 0.1 μM 30 min prior to stimulation. The vehicle used to dissolve factors or chemicals was added to unstimulated samples, which were then processed together with the test samples.
# DNA-synthesis was analyzed by visualization of BrdU uptake and cytokinesis was determined by detection of the cleavage furrow and the midbody with an antibody against aurora B kinase as described (Engel, F. B. et al. p38 MAP kinase inhibition enables proliferation of adult mammalian cardiomyocytes. Genes Dev 19, 1175-87 (2005)). Signals were visualized with secondary antibodies conjugated to Alexa 488, Alexa 546, Alexa 594, and Alexa 647 (Invitrogen). Nuclei were visualized with 4′,6′-diamidino-2-phenylindole (DAPI, Invitrogen). For image acquisition, the value for γ was set at 1 and the lookup table settings were linear.
# [6] = H2B-GFP, after 6 days, 3 days BrdU labeling, stimulus not named in block (periostin section)
# [7] = 12 weeks after MI, listed as Periostin
molecule,measurement,setting,value
B1,increase of cardiomyocyte DNA synthesis,"[1]; 9 days periostin 500 ng/mL, vs non-stimulated",14 fold
same,cardiomyocyte DNA synthesis,"[1]; 9 days stimulation (periostin 500 ng/mL, FGF 100 ng/mL), BrdU terminal 3 days",1.1±0.2%
same,BrdU-positive binucleated cardiomyocytes,[1]; [6],0.2±0.03%
same,BrdU-positive mononucleated cardiomyocytes,[1]; [6],1.7±0.3%
same,start of periostin-induced cardiomyocyte DNA synthesis,[1]; time-course of stimulation,3 days
same,Ejection fraction,[2]; 1 week after MI,53%
same,End-diastolic dimension,[2]; 1 week after MI,8.1 ± 0.4 mm
same,End-systolic dimension,[2]; 1 week after MI,6.1 ± 0.4 mm
same,Shortening fraction,"[2]; 1 week after MI, periostin Gelfoam 100 μg",25%
same,Shortening fraction,"[2]; 1 week after MI, periostin Gelfoam 100 μg, listed as Periostin",25.2 ± 2.1%
same,Ejection fraction,"[2]; 1 week after MI, listed as Periostin",52.6 ± 2.9%
same,Ejection fraction,[2]; 12 weeks after MI,66%
same,End-diastolic dimension,[2]; 12 weeks after MI,significantly smaller
same,End-systolic dimension,[2]; 12 weeks after MI,6 ± 0.5 mm
same,Shortening fraction,[2]; 12 weeks after MI,33%
same,Ejection fraction,[2]; [7],65.9 ± 3.8%
same,End-diastolic dimension,[2]; [7],8.4 ± 0.2 mm
same,Shortening fraction,[2]; [7],33.0 ± 2.6%
same,Maximum left ventricular elastance,[2],higher
same,Maximum rate of left ventricular pressure rise,[2],higher
same,Preload-recruitable stroke work,[2],higher
same,Slope of end-systolic pressure-volume relationship,[2],steeper slope
same,Maximum left ventricular elastance,[2]; listed as Periostin,2.5 ± 1
same,Maximum rate of left ventricular pressure rise,[2]; listed as Periostin,4821 ± 513 mm Hg/s
same,Preload-recruitable stroke work,[2]; listed as Periostin,68.6 ± 13.9 mm Hg
same,Slope of end-systolic pressure-volume relationship,[2]; listed as Periostin,1.4 ± 0.2 mm Hg/μL
same,activation of ERK1/2 and Akt,ERK1/2 and Akt,activated
same,transcription of SERCA2,[3],slightly increased
same,"transcription of β-MHC, SMA and ANF",[3],not increased
same,increase of cardiomyocyte proliferation,[4]; after 3 days,3.6 fold
same,increase of cardiomyocyte proliferation,[4]; after 6 days,4.2 fold
same,"DNA synthesis, of cardiomyocytes","[5]; 500 ng/mL, 3 days",35±5%
same,increase of DNA synthesis over non-stimulated cardiomyocytes,"[5]; 500 ng/mL, 3 days",5 fold
same,increase of cardiomyocyte mitoses,[5]; 3 days,12 fold
same,increase of cytokineses,[5]; 3 days,8 fold
same,induction of cardiomyocyte DNA synthesis,"[5]; FIG. 2d, 2e",stimulated DNA synthesis as effectively as FGF
same,EC50,"[5]; increasing concentrations of periostin (FIG. 2a), read-out: half-maximal stimulation of cardiomyocyte DNA synthesis",155 ± 25 nM
